According to article PMC3981736, “The Domain-Specific and Temperature-Dependent Protein Misfolding Phenotype of Variant Medium-Chain acyl-CoA Dehydrogenase” (PLoS ONE, 2014):

Biological target: the molecule itself
Assay: SEC; re-chromatography after Factor Xa cleavage of the MBP tag; HiLoad 16/600 Superdex 200, 20 mM HEPES pH 7.0, 200 mM NaCl, 4 °C; tetrameric fraction pooled

Row | Protein | stoichiometry N
1 | medium-chain acyl-CoA dehydrogenase (MCAD) wild-type (enzyme, human, UniProt P11310-1 26-421, looked up, medium-chain acyl-CoA dehydrogenase (MCAD), human, cDNA of the ACADM gene cloned into pMALc2X; also called WT; wild-type MCAD; source: E. coli BL21-CodonPlus, purified (MBPTrap, SEC, Factor Xa cleavage, SEC); not shown: MBP, N-terminal, cleaved) KANRQREPGLGFSFEFTEQQKEFQATARKFAREEIIPVAAEYDKTGEYPVPLIRRAWELGLMNTHIPENCGGLGLGTFDACLISEELAYGCTGVQTAIEGNSLGQMPIIIAGNDQQKKKYLGRMTEEPLMCAYCVTEPGAGSDVAGIKTKAEKKGDEYIINGQKMWITNGGKANWYFLLARSDPDPKAPANKAFTGFIVEADTPGIQIGRKELNMGQRCSDTRGIVFEDVKVPKENVLIGDGAGFKVAMGAFDKTRPVVAAGAVGLAQRALDEATKYALERKTFGKLLVEHQAISFMLAEMAMKVELARMSYQRAAWEVDSGRRNTYYASIAKAFAGDIANQLATDAVQILGGNGFNTEYPVEKLMRDAKIYQIYEGTSQIQRLIVAREHIDKYKN | 4
2 | MCAD p.Lys329Glu (enzyme, human, UniProt P11310-1 26-421, looked up, medium-chain acyl-CoA dehydrogenase (MCAD), human, ACADM cDNA in pMALc2X with a missense mutation found in patients; number counts on the precursor (initiator methionine +1); also called K329E; p.Lys304Glu; source: E. coli DH5α co-transformed with pGroESL, purified (MBPTrap, SEC, Factor Xa cleavage, SEC); not shown: MBP, N-terminal, cleaved) KANRQREPGLGFSFEFTEQQKEFQATARKFAREEIIPVAAEYDKTGEYPVPLIRRAWELGLMNTHIPENCGGLGLGTFDACLISEELAYGCTGVQTAIEGNSLGQMPIIIAGNDQQKKKYLGRMTEEPLMCAYCVTEPGAGSDVAGIKTKAEKKGDEYIINGQKMWITNGGKANWYFLLARSDPDPKAPANKAFTGFIVEADTPGIQIGRKELNMGQRCSDTRGIVFEDVKVPKENVLIGDGAGFKVAMGAFDKTRPVVAAGAVGLAQRALDEATKYALERKTFGKLLVEHQAISFMLAEMAMEVELARMSYQRAAWEVDSGRRNTYYASIAKAFAGDIANQLATDAVQILGGNGFNTEYPVEKLMRDAKIYQIYEGTSQIQRLIVAREHIDKYKN | 4
3 | MCAD p.Arg413Ser (enzyme, human, UniProt P11310-1 26-421, looked up, medium-chain acyl-CoA dehydrogenase (MCAD), human, ACADM cDNA in pMALc2X with a missense mutation found in newborn screening; number counts on the precursor (initiator methionine +1); also called R413S; p.Arg388Ser; source: E. coli DH5α co-transformed with pGroESL, purified (MBPTrap, SEC, Factor Xa cleavage, SEC); not shown: MBP, N-terminal, cleaved) KANRQREPGLGFSFEFTEQQKEFQATARKFAREEIIPVAAEYDKTGEYPVPLIRRAWELGLMNTHIPENCGGLGLGTFDACLISEELAYGCTGVQTAIEGNSLGQMPIIIAGNDQQKKKYLGRMTEEPLMCAYCVTEPGAGSDVAGIKTKAEKKGDEYIINGQKMWITNGGKANWYFLLARSDPDPKAPANKAFTGFIVEADTPGIQIGRKELNMGQRCSDTRGIVFEDVKVPKENVLIGDGAGFKVAMGAFDKTRPVVAAGAVGLAQRALDEATKYALERKTFGKLLVEHQAISFMLAEMAMKVELARMSYQRAAWEVDSGRRNTYYASIAKAFAGDIANQLATDAVQILGGNGFNTEYPVEKLMRDAKIYQIYEGTSQIQRLIVASEHIDKYKN | 4
4 | MCAD p.Arg206Cys (enzyme, human, UniProt P11310-1 26-421, looked up, medium-chain acyl-CoA dehydrogenase (MCAD), human, ACADM cDNA in pMALc2X with a missense mutation found in newborn screening; number counts on the precursor (initiator methionine +1); also called R206C; p.Arg181Cys; source: E. coli DH5α co-transformed with pGroESL, purified (MBPTrap, SEC, Factor Xa cleavage, SEC); not shown: MBP, N-terminal, cleaved) KANRQREPGLGFSFEFTEQQKEFQATARKFAREEIIPVAAEYDKTGEYPVPLIRRAWELGLMNTHIPENCGGLGLGTFDACLISEELAYGCTGVQTAIEGNSLGQMPIIIAGNDQQKKKYLGRMTEEPLMCAYCVTEPGAGSDVAGIKTKAEKKGDEYIINGQKMWITNGGKANWYFLLACSDPDPKAPANKAFTGFIVEADTPGIQIGRKELNMGQRCSDTRGIVFEDVKVPKENVLIGDGAGFKVAMGAFDKTRPVVAAGAVGLAQRALDEATKYALERKTFGKLLVEHQAISFMLAEMAMKVELARMSYQRAAWEVDSGRRNTYYASIAKAFAGDIANQLATDAVQILGGNGFNTEYPVEKLMRDAKIYQIYEGTSQIQRLIVAREHIDKYKN | 4
5 | MCAD p.Tyr67His (enzyme, human, UniProt P11310-1 26-421, looked up, medium-chain acyl-CoA dehydrogenase (MCAD), human, ACADM cDNA in pMALc2X with a missense mutation found in newborn screening; number counts on the precursor (initiator methionine +1); also called Y67H; p.Tyr42His; source: E. coli DH5α co-transformed with pGroESL, purified (MBPTrap, SEC, Factor Xa cleavage, SEC); not shown: MBP, N-terminal, cleaved) KANRQREPGLGFSFEFTEQQKEFQATARKFAREEIIPVAAEHDKTGEYPVPLIRRAWELGLMNTHIPENCGGLGLGTFDACLISEELAYGCTGVQTAIEGNSLGQMPIIIAGNDQQKKKYLGRMTEEPLMCAYCVTEPGAGSDVAGIKTKAEKKGDEYIINGQKMWITNGGKANWYFLLARSDPDPKAPANKAFTGFIVEADTPGIQIGRKELNMGQRCSDTRGIVFEDVKVPKENVLIGDGAGFKVAMGAFDKTRPVVAAGAVGLAQRALDEATKYALERKTFGKLLVEHQAISFMLAEMAMKVELARMSYQRAAWEVDSGRRNTYYASIAKAFAGDIANQLATDAVQILGGNGFNTEYPVEKLMRDAKIYQIYEGTSQIQRLIVAREHIDKYKN | 4
6 | MCAD p.Asp266Gly (enzyme, human, UniProt P11310-1 26-421, looked up, medium-chain acyl-CoA dehydrogenase (MCAD), human, ACADM cDNA in pMALc2X with a missense mutation found in newborn screening; number counts on the precursor (initiator methionine +1); also called D266G; p.Asp241Gly; source: E. coli DH5α co-transformed with pGroESL, purified (MBPTrap, SEC, Factor Xa cleavage, SEC); not shown: MBP, N-terminal, cleaved) KANRQREPGLGFSFEFTEQQKEFQATARKFAREEIIPVAAEYDKTGEYPVPLIRRAWELGLMNTHIPENCGGLGLGTFDACLISEELAYGCTGVQTAIEGNSLGQMPIIIAGNDQQKKKYLGRMTEEPLMCAYCVTEPGAGSDVAGIKTKAEKKGDEYIINGQKMWITNGGKANWYFLLARSDPDPKAPANKAFTGFIVEADTPGIQIGRKELNMGQRCSDTRGIVFEDVKVPKENVLIGGGAGFKVAMGAFDKTRPVVAAGAVGLAQRALDEATKYALERKTFGKLLVEHQAISFMLAEMAMKVELARMSYQRAAWEVDSGRRNTYYASIAKAFAGDIANQLATDAVQILGGNGFNTEYPVEKLMRDAKIYQIYEGTSQIQRLIVAREHIDKYKN | 4
7 | MCAD p.Tyr158His (enzyme, human, UniProt P11310-1 26-421, looked up, medium-chain acyl-CoA dehydrogenase (MCAD), human, ACADM cDNA in pMALc2X with a missense mutation found in newborn screening; number counts on the precursor (initiator methionine +1); also called Y158H; p.Tyr133His; source: E. coli DH5α co-transformed with pGroESL, purified (MBPTrap, SEC, Factor Xa cleavage, SEC); not shown: MBP, N-terminal, cleaved) KANRQREPGLGFSFEFTEQQKEFQATARKFAREEIIPVAAEYDKTGEYPVPLIRRAWELGLMNTHIPENCGGLGLGTFDACLISEELAYGCTGVQTAIEGNSLGQMPIIIAGNDQQKKKYLGRMTEEPLMCAHCVTEPGAGSDVAGIKTKAEKKGDEYIINGQKMWITNGGKANWYFLLARSDPDPKAPANKAFTGFIVEADTPGIQIGRKELNMGQRCSDTRGIVFEDVKVPKENVLIGDGAGFKVAMGAFDKTRPVVAAGAVGLAQRALDEATKYALERKTFGKLLVEHQAISFMLAEMAMKVELARMSYQRAAWEVDSGRRNTYYASIAKAFAGDIANQLATDAVQILGGNGFNTEYPVEKLMRDAKIYQIYEGTSQIQRLIVAREHIDKYKN | 4
8 | MCAD p.Ala52Val (enzyme, human, UniProt P11310-1 26-421, looked up, medium-chain acyl-CoA dehydrogenase (MCAD), human, ACADM cDNA in pMALc2X with a missense mutation found in newborn screening; number counts on the precursor (initiator methionine +1); also called p.Ala27Val; A27V; source: E. coli DH5α co-transformed with pGroESL, purified (MBPTrap, SEC, Factor Xa cleavage, SEC); not shown: MBP, N-terminal, cleaved) KANRQREPGLGFSFEFTEQQKEFQATVRKFAREEIIPVAAEYDKTGEYPVPLIRRAWELGLMNTHIPENCGGLGLGTFDACLISEELAYGCTGVQTAIEGNSLGQMPIIIAGNDQQKKKYLGRMTEEPLMCAYCVTEPGAGSDVAGIKTKAEKKGDEYIINGQKMWITNGGKANWYFLLARSDPDPKAPANKAFTGFIVEADTPGIQIGRKELNMGQRCSDTRGIVFEDVKVPKENVLIGDGAGFKVAMGAFDKTRPVVAAGAVGLAQRALDEATKYALERKTFGKLLVEHQAISFMLAEMAMKVELARMSYQRAAWEVDSGRRNTYYASIAKAFAGDIANQLATDAVQILGGNGFNTEYPVEKLMRDAKIYQIYEGTSQIQRLIVAREHIDKYKN | 4
9 | MCAD p.Arg334Lys (enzyme, human, UniProt P11310-1 26-421, looked up, medium-chain acyl-CoA dehydrogenase (MCAD), human, ACADM cDNA in pMALc2X with a missense mutation found in newborn screening; number counts on the precursor (initiator methionine +1); also called R334K; p.Arg309Lys; source: E. coli DH5α co-transformed with pGroESL, purified (MBPTrap, SEC, Factor Xa cleavage, SEC); not shown: MBP, N-terminal, cleaved) KANRQREPGLGFSFEFTEQQKEFQATARKFAREEIIPVAAEYDKTGEYPVPLIRRAWELGLMNTHIPENCGGLGLGTFDACLISEELAYGCTGVQTAIEGNSLGQMPIIIAGNDQQKKKYLGRMTEEPLMCAYCVTEPGAGSDVAGIKTKAEKKGDEYIINGQKMWITNGGKANWYFLLARSDPDPKAPANKAFTGFIVEADTPGIQIGRKELNMGQRCSDTRGIVFEDVKVPKENVLIGDGAGFKVAMGAFDKTRPVVAAGAVGLAQRALDEATKYALERKTFGKLLVEHQAISFMLAEMAMKVELAKMSYQRAAWEVDSGRRNTYYASIAKAFAGDIANQLATDAVQILGGNGFNTEYPVEKLMRDAKIYQIYEGTSQIQRLIVAREHIDKYKN | 4
